B1: P. aeruginosa APS reductase (enzyme, UniProt O05927 1-267, looked up)
chain: MLPFATIPATERNSAAQHQDPSPMSQPFDLPALASSLADKSPQDILKAAFEHFGDELWISFSGAEDVVLVDMAWKLNRNVKVFSLDTGRLHPETYRFIDQVREHYGIAIDVLSPDPRLLEPLVKEKGLFSFYRDGHGECCGIRKIEPLKRKLAGVRAWATGQRRDQSPGTRSQVAVLEIDGAFSTPEKPLYKFNPLSSMTSEEVWGYIRMLELPYNSLHERGYISIGCEPCTRPVLPNQHEREGRWWWEEATHKECGLHAGNLISKA
notes: APS reductase of P. aeruginosa, gene amplified from P. aeruginosa genomic DNA ATCC 47085D; Cloned into pET24b or pET14b; source: E. coli BL21(DE3), purified (HiTrap Chelating, Superdex 200 gel filtration)

What was measured:
[1] = target: E. coli PAPS reductase (E. coli); assay: SEC; Superdex 200 gel filtration; 50 mM Tris-HCl (pH 8.0), 10% glycerol, 5 mM DTT, ionic strength adjusted to 150 mM with NaCl; column calibrated with protein standards; no change in retention volume when DTT was omitted
[2] = target: the molecule itself; assay: as above

Molecule	stoichiometry N [1]	stoichiometry N [2]
E. coli PAPS reductase (enzyme)	2	–
B1	–	4

Reference: publication PMC1175818, “A Conserved Mechanism for Sulfonucleotide Reduction” (PLoS Biology, 2005)
